B1: RSPH3 (parent)
chain: MTVKPAKAASLARNLAKRRRTYLG

Variants of: B1
Assay: protein stability index of a GFP-peptide fusion (GPS, HEK-293T) (PSI 1-6); higher = more stable
Conditions: c terminus: a fixed tail appended
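Further: lentivirally expressed fusions sorted by FACS into six bins by GFP to DsRed ratio, PSI derived from sequencing read proportions per bin multiplied by bin number.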

**Q.** For MTVKPAKAASLARNLNKRRRTYLG, which protein stability index is on record?
**A.** Its protein stability index is 2.72.

**Q.** With MTVKPAKAASLARNLWKRRRTYLG as the variant, how does the protein stability index read?
**A.** The protein stability index was 1.82.

**Q.** Which protein stability index does the source give for MTVKPAKAASLARNLRKRRRTYLG here?
**A.** Its protein stability index is 3.35.

**Q.** For MTVKPAKAASLARNLQKRRRTYLG, which protein stability index is on record?
**A.** The protein stability index was 2.19.

**Q.** For MTVKPAKAASLARNLHKRRRTYLG, which protein stability index is on record?
**A.** The protein stability index was 3.91.

**Q.** With MTVKPAKAASLARNLKKRRRTYLG as the variant, how does the protein stability index read?
**A.** The protein stability index was 3.44.

**Q.** Which protein stability index does the source give for MTVKPAKAASLARNLCKRRRTYLG here?
**A.** The protein stability index was 2.72.

**Q.** Which protein stability index does the source give for MTVKPAKAASLARNLAKRRLTYLG here?
**A.** The protein stability index was 1.81.

**Q.** Which protein stability index does the source give for MTVKPAKAASLARNLAKRRPTYLG here?
**A.** The protein stability index was 2.81.

**Q.** For MTVKPAKAASLARNLAKRRWTYLG, which protein stability index is on record?
**A.** The protein stability index was 2.2.

**Q.** With MTVKPAKAASLARNLAKRRKTYLG as the variant, how does the protein stability index read?
**A.** Its protein stability index is 3.12.

**Q.** Which protein stability index does the source give for MTVKPAKAASLARNLAKRRQTYLG here?
**A.** Its protein stability index is 3.83.

**Q.** With MTVKPAKAASLARNLAKRRMTYLG as the variant, how does the protein stability index read?
**A.** Its protein stability index is 2.72.

**Q.** Which protein stability index does the source give for MTVKPAKAASLARNLAKRRFTYLG here?
**A.** The protein stability index was 1.96.

**Q.** With MTVKPAKAASLARNLAKRRDTYLG as the variant, how does the protein stability index read?
**A.** The protein stability index was 3.08.

**Q.** Which protein stability index does the source give for MTVKPAKAASLARNLAKRRSTYLG here?
**A.** The protein stability index was 2.61.

**Q.** Which protein stability index does the source give for MTVKPAKAASLARNLAKRRYTYLG here?
**A.** The protein stability index was 1.51.

**Q.** With MTVKPAKAASLARNLAKRRHTYLG as the variant, how does the protein stability index read?
**A.** Its protein stability index is 2.59.

**Q.** For MTVKPAKAASLARNLAKRRETYLG, which protein stability index is on record?
**A.** Its protein stability index is 2.81.

**Q.** With MTVKPAKAASLARNLAKRRNTYLG as the variant, how does the protein stability index read?
**A.** The protein stability index was 2.94.

**Q.** Which protein stability index does the source give for MTVKPAKAASLARNLAKRRITYLG here?
**A.** Its protein stability index is 2.17.

**Q.** For MTVKPAKAASLARNLAKRRVTYLG, which protein stability index is on record?
**A.** The protein stability index was 1.63.

**Q.** Which protein stability index does the source give for MTVKPAKAASLARNLAKRRCTYLG here?
**A.** The protein stability index was 1.91.

**Q.** For MTVKPAKAASLARNLAKRRTTYLG, which protein stability index is on record?
**A.** The protein stability index was 2.61.

**Q.** Which protein stability index does the source give for MTVKPAKAASLARNLAKRRATYLG here?
**A.** Its protein stability index is 2.41.

**Q.** For MTVKPAKAASLARNLAKERRTYLG, which protein stability index is on record?
**A.** Its protein stability index is 3.33.

**Q.** With MTVKPAKAASLARNLAKDRRTYLG as the variant, how does the protein stability index read?
**A.** Its protein stability index is 3.

**Q.** Which protein stability index does the source give for MTVKPAKAASLARNLAKFRRTYLG here?
**A.** The protein stability index was 2.71.

**Q.** Which protein stability index does the source give for MTVKPAKAASLARNLAKMRRTYLG here?
**A.** The protein stability index was 2.38.

**Q.** For MTVKPAKAASLARNLAKYRRTYLG, which protein stability index is on record?
**A.** The protein stability index was 2.27.

**Q.** With MTVKPAKAASLARNLAKHRRTYLG as the variant, how does the protein stability index read?
**A.** Its protein stability index is 2.91.

**Q.** Which protein stability index does the source give for MTVKPAKAASLARNLAKSRRTYLG here?
**A.** The protein stability index was 2.96.

**Q.** For MTVKPAKAASLARNLAKKRRTYLG, which protein stability index is on record?
**A.** Its protein stability index is 2.55.

**Q.** With MTVKPAKAASLARNLAKVRRTYLG as the variant, how does the protein stability index read?
**A.** The protein stability index was 2.91.

**Q.** Which protein stability index does the source give for MTVKPAKAASLARNLAKPRRTYLG here?
**A.** The protein stability index was 2.38.

**Q.** Which protein stability index does the source give for MTVKPAKAASLARNLAKQRRTYLG here?
**A.** The protein stability index was 2.52.

**Q.** With MTVKPAKAASLARNLAKGRRTYLG as the variant, how does the protein stability index read?
**A.** Its protein stability index is 3.22.

**Q.** For MTVKPAKAASLARNLAKTRRTYLG, which protein stability index is on record?
**A.** The protein stability index was 2.73.

**Q.** Which protein stability index does the source give for MTVKPAKAASLARNLAKNRRTYLG here?
**A.** The protein stability index was 2.31.

**Q.** Which protein stability index does the source give for MTVKPAKAASLARNLAKWRRTYLG here?
**A.** Its protein stability index is 2.55.

**Q.** With MTVKPAKAASLARNLAKARRTYLG as the variant, how does the protein stability index read?
**A.** The protein stability index was 3.3.

**Q.** With MTVKPAKAASLARNLAKIRRTYLG as the variant, how does the protein stability index read?
**A.** The protein stability index was 2.63.

**Q.** For MTVKPAKAASLARNLAKLRRTYLG, which protein stability index is on record?
**A.** Its protein stability index is 2.55.

**Q.** For MTVKPAKAASLARNLAKCRRTYLG, which protein stability index is on record?
**A.** The protein stability index was 2.62.

**Q.** Which protein stability index does the source give for MTVKPAKAASLAHNLAKRRRTYLG here?
**A.** The protein stability index was 2.42.

**Q.** With MTVKPAKAASLAKNLAKRRRTYLG as the variant, how does the protein stability index read?
**A.** Its protein stability index is 3.08.

**Q.** Which protein stability index does the source give for MTVKPAKAASLAGNLAKRRRTYLG here?
**A.** Its protein stability index is 2.86.

**Q.** Which protein stability index does the source give for MTVKPAKAASLAFNLAKRRRTYLG here?
**A.** The protein stability index was 2.29.

**Q.** For MTVKPAKAASLANNLAKRRRTYLG, which protein stability index is on record?
**A.** The protein stability index was 3.63.

**Q.** For MTVKPAKAASLAPNLAKRRRTYLG, which protein stability index is on record?
**A.** Its protein stability index is 2.48.

**Q.** With MTVKPAKAASLAQNLAKRRRTYLG as the variant, how does the protein stability index read?
**A.** Its protein stability index is 3.48.

**Q.** With MTVKPAKAASLAINLAKRRRTYLG as the variant, how does the protein stability index read?
**A.** The protein stability index was 2.7.

**Q.** Which protein stability index does the source give for MTVKPAKAASLALNLAKRRRTYLG here?
**A.** The protein stability index was 2.36.

**Q.** For MTVKPAKAASLASNLAKRRRTYLG, which protein stability index is on record?
**A.** Its protein stability index is 2.8.

**Q.** Which protein stability index does the source give for MTVKPAKAASLAVNLAKRRRTYLG here?
**A.** The protein stability index was 2.56.

**Q.** With MTVKPAKAASLAWNLAKRRRTYLG as the variant, how does the protein stability index read?
**A.** The protein stability index was 1.8.

**Q.** With MTVKPAKAASLAMNLAKRRRTYLG as the variant, how does the protein stability index read?
**A.** Its protein stability index is 2.39.

**Q.** With MTVKPAKAASLATNLAKRRRTYLG as the variant, how does the protein stability index read?
**A.** Its protein stability index is 2.66.

**Q.** For MTVKPAKAASLARMLAKRRRTYLG, which protein stability index is on record?
**A.** Its protein stability index is 2.39.

**Q.** Which protein stability index does the source give for MTVKPAKAASLARTLAKRRRTYLG here?
**A.** Its protein stability index is 3.29.

**Q.** Which protein stability index does the source give for MTVKPAKAASLARPLAKRRRTYLG here?
**A.** Its protein stability index is 2.8.

**Q.** Which protein stability index does the source give for MTVKPAKAASLARCLAKRRRTYLG here?
**A.** Its protein stability index is 2.14.

**Q.** Which protein stability index does the source give for MTVKPAKAASLARHLAKRRRTYLG here?
**A.** The protein stability index was 1.94.

**Q.** Which protein stability index does the source give for MTVKPAKAASLARYLAKRRRTYLG here?
**A.** Its protein stability index is 2.75.

**Q.** Which protein stability index does the source give for MTVKPAKAASLARQLAKRRRTYLG here?
**A.** The protein stability index was 3.41.

**Q.** For MTVKPAKAASLARDLAKRRRTYLG, which protein stability index is on record?
**A.** Its protein stability index is 3.08.

**Q.** For MTVKPAKAASLARFLAKRRRTYLG, which protein stability index is on record?
**A.** Its protein stability index is 1.96.

**Q.** With MTVKPAKAASLARALAKRRRTYLG as the variant, how does the protein stability index read?
**A.** Its protein stability index is 1.87.

**Q.** With MTVKPAKAASLARVLAKRRRTYLG as the variant, how does the protein stability index read?
**A.** The protein stability index was 2.53.

**Q.** Which protein stability index does the source give for MTVKPAKAASLARGLAKRRRTYLG here?
**A.** The protein stability index was 3.21.

**Q.** With MTVKPAKAASLARILAKRRRTYLG as the variant, how does the protein stability index read?
**A.** Its protein stability index is 1.22.

**Q.** With MTVKPAKAASLARELAKRRRTYLG as the variant, how does the protein stability index read?
**A.** Its protein stability index is 2.88.

**Q.** With MTVKPAKAASLARSLAKRRRTYLG as the variant, how does the protein stability index read?
**A.** Its protein stability index is 2.62.

**Q.** Which protein stability index does the source give for MTVKPAKAASLARRLAKRRRTYLG here?
**A.** The protein stability index was 2.13.

**Q.** For MTVKPAKAASLARKLAKRRRTYLG, which protein stability index is on record?
**A.** Its protein stability index is 2.4.

**Q.** For MTVKPAKAASLARWLAKRRRTYLG, which protein stability index is on record?
**A.** The protein stability index was 2.67.

**Q.** For MTVKPAKAASLARNLAKRRRTVLG, which protein stability index is on record?
**A.** The protein stability index was 3.99.

**Q.** Which protein stability index does the source give for MTVKPAKAASLARNLAKRRRTMLG here?
**A.** Its protein stability index is 2.9.

**Q.** Which protein stability index does the source give for MTVKPAKAASLARNLAKRRRTILG here?
**A.** Its protein stability index is 3.37.

**Q.** With MTVKPAKAASLARNLAKRRRTHLG as the variant, how does the protein stability index read?
**A.** Its protein stability index is 3.84.

**Q.** With MTVKPAKAASLARNLAKRRRTNLG as the variant, how does the protein stability index read?
**A.** The protein stability index was 3.46.

**Q.** With MTVKPAKAASLARNLAKRRRTTLG as the variant, how does the protein stability index read?
**A.** The protein stability index was 3.88.

**Q.** For MTVKPAKAASLARNLAKRRRTDLG, which protein stability index is on record?
**A.** Its protein stability index is 3.31.

**Q.** For MTVKPAKAASLARNLAKRRRTELG, which protein stability index is on record?
**A.** Its protein stability index is 3.12.

**Q.** With MTVKPAKAASLARNLAKRRRTWLG as the variant, how does the protein stability index read?
**A.** The protein stability index was 3.06.

**Q.** With MTVKPAKAASLARNLAKRRRTKLG as the variant, how does the protein stability index read?
**A.** Its protein stability index is 3.85.

**Q.** For MTVKPAKAASLARNLAKRRRTRLG, which protein stability index is on record?
**A.** The protein stability index was 3.03.

**Q.** Which protein stability index does the source give for MTVKPAKAASLARNLAKRRRTGLG here?
**A.** The protein stability index was 4.24.

**Q.** With MTVKPAKAASLARNLAKRRRTFLG as the variant, how does the protein stability index read?
**A.** The protein stability index was 3.25.

**Q.** With MTVKPAKAASLARNLAKRRRTPLG as the variant, how does the protein stability index read?
**A.** Its protein stability index is 3.26.

**Q.** For MTVKPAKAASLARNLAKRRRTALG, which protein stability index is on record?
**A.** Its protein stability index is 3.81.

**Q.** For MTVKPAKAASLARNLAKRRRTSLG, which protein stability index is on record?
**A.** Its protein stability index is 3.23.

**Q.** For MTVKPAKAASLARNLAKRRRTCLG, which protein stability index is on record?
**A.** The protein stability index was 3.63.

**Q.** Which protein stability index does the source give for MTVKPAKAASLARNLAKRRRTQLG here?
**A.** The protein stability index was 3.93.

— the supplement of paper PMC10567573
